For the experiment, the target named is T1, GtgA(20–228)^E183Q (Salmonella Typhimurium strain ATCC …, UniProt A0A0F6AZI6 20-228, E183Q).
T1 construct: residues left by TEV cleavage of the His6–GST tag, before the first residue of GtgA; Cloned in pETM30 (TEV-cleavable N-terminal His6 and GST); source: E. coli BL21 PC2, purified (GSH–Sepharose, TEV cleavage, Superdex 75 SEC); not shown: His6, N-terminal, cleaved; GST, N-terminal, cleaved
T1 sequence: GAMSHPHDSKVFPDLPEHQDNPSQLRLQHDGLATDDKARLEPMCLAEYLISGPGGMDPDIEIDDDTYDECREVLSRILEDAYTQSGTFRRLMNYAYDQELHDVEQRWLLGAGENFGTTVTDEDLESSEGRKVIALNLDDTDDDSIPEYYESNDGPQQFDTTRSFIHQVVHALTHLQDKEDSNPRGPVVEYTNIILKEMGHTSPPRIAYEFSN
Description: crystal structure; GtgA(20–228)^E183Q–p65(20–188) complex, 175 μM of each protein mixed immediately prior to crystallization; sitting drop, 20 °C, 0.1 M Tris pH 8.3, 0.5 M LiCl, 32.5% (w/v) PEG 6000; Zn2+-free; single heterodimer in the asymmetric unit. Conditions: both partners purified.

Results on 1 molecule are retold here after paper PMC6166728, “Structure–function analyses of the bacterial zinc metalloprotease effector protein GtgA uncover key residues required for deactivating NF-κB” (The Journal of Biological Chemistry, 2018).

B1: p65(20–188) (domain or fragment, murine)
chain: AYVEIIEQPKQRGMRFRYKCEGRSAGSIPGERSTDTTKTHPTIKINGYTGPGTVRISLVTKDPPHRPHPHELVGKDCRDGYYEADLCPDRSIHSFQNLGIQCVKKRDLEQAISQRIQTNNNPFHVPIEEQRGDYDLNAVRLCFQVTVRDPAGRPLLLTPVLSHPIFDNRA
notes: single alanine left by ULP1 cleavage of the His6–SUMO tag, before the first residue of p65; NF-κB subunit p65 (RelA), murine, amplified from RAW264.7 cDNA, N-terminal domain residues 20–188; Cloned in pE-SUMO (LifeSensors); also called p65 NTD; p65 N-terminal domain; source: E. coli BL21 PC2, purified (Ni-NTA, ULP1 cleavage, Superdex 75 SEC); not shown: His6, N-terminal, cleaved; SUMO, …
On to B1, for which the binding result was “binds”.
